Sequences and labels used below:
B1: bIgG1a mAb (antibody, part only; not given: variable domains, not shown: another chain or arm of the molecule)
constant: ASTTAPKVYPLSSCCGDKSSSTVTLGCLVSSYMPEPVTVTWNSGALKSGVHTFPAVLQSSGLYSLSSMVTVPGSTSGTQTFTCNVAHPASSTKVDKAVDPRCKTTCDCCPPPELPGGPSVFIFPPKPKDTLTISGTPEVTCVVVDVGHDDPEVKFSWFVDDVEVNTATTKPREEQFNSTYRVVSALRIQHQDWTGGKEFKCKVHNEGLPAPIVRTISRTKGPAREPQVYVLAPPQEELSKSTVSLTCMVTSFYPDYIAVEWQRNGQPESEDKYGTTPPQLDADGSYFLYSRLRVDRNSWQEGDTYTCVVMHEALHNHYTQKSTSKSAGK
B2: bIgG2a_L432A mAb (antibody, part only; not given: variable domains, not shown: another chain or arm of the molecule)
constant: ASTTAPKVYPLTSCCGDKSSSRVTLGCLVSSYMPEPVTVTWNSGALKSGVHTFPAVLQSSGLYSLSSMVTVPGSSSGQTFTCNVAHPASSTKVDKAVGVSSDCSKPNNQHCVREPSVFIFPPKPKDTLMITGTPEVTCVVVNVGHDNPEVQFSWFVDDVEVHTARTKPREEQFNSTYRVVSALPIQHQDWTGGKEFKCKVNIKGLSASIVRIISRSKGPAREPQVYVLDPPKEELSKSTVSVTCMVIGFYPEDVDVEWQRDRQTESEDKYRTTPPQLDADRSYFLYSKLRVDRNSWQRGDTYTCVVMHEAAHNHYMQKSTSKSAGK
B3: bIgG2a_N434A mAb (antibody, part only; not given: variable domains, not shown: another chain or arm of the molecule)
constant: B2 constant with A311L, N313A
B4: bIgG2a_L432A_M437A mAb (antibody, part only; not given: variable domains, not shown: another chain or arm of the molecule)
constant: B2 constant with M316A
B5: bIgG2a_L432A_N434A_M437A mAb (antibody, part only; not given: variable domains, not shown: another chain or arm of the molecule)
constant: B2 constant with N313A, M316A
B6: bIgG2a_M437A mAb (antibody, part only; not given: variable domains, not shown: another chain or arm of the molecule)
constant: B2 constant with A311L, M316A
B7: bIgG2a_L432A_N434A mAb (antibody, part only; not given: variable domains, not shown: another chain or arm of the molecule)
constant: B2 constant with N313A
B8: bIgG2a_N434A_M437A mAb (antibody, part only; not given: variable domains, not shown: another chain or arm of the molecule)
constant: B2 constant with A311L, N313A, M316A
B9: bIgG3a wildtype mAb (antibody, part only; not given: variable domains, not shown: another chain or arm of the molecule)
constant: ASTTAPKVYPLASSCGDTSSSTVTLGCLVSSYMPEPVTVTWNSGALKSGVHTFPAVRQSSGLYSLSSMVTVPASSSETQTFTCNVAHPASSTKVDKAVTARRPVPTTPKTTIPPGKPTTPKSEVEKTPCQCSKCPEPLGGLSVFIFPPKPKDTLTISGTPEVTCVVVDVGQDDPEVQFSWFVDDVEVHTARTKPREEQFNSTYRVVSALRIQHQDWLQGKEFKCKVNNKGLPAPIVRTISRTKGQAREPQVYVLAPPREELSKSTLSLTCLITGFYPEEIDVEWQRNGQPESEDKYHTTAPQLDADGSYFLYSKLRVNKSSWQEGDHYTCAVMHEALRNHYKEKSISRSPGK
B10: bIgG3a_R433H mutant mAb (antibody, part only; not given: variable domains, not shown: another chain or arm of the molecule)
constant: B9 constant with R338H

Residue numbers refer to the chain shown, from its start.

The first assay concerns the target recombinant bovine FcRn (bovine) (UniProt F6R592). As to the kind of experiment: SPR Biacore, bFcRn on SA sensor, pH 6, 25 C. On the technique in general: SPR reads the build-up and loss of mass on a sensor chip optically.
As usually defined, the Kd is a measure of binding affinity in units of concentration. Take B1: the Kd was 31.4 nM. Still for that read-out and setting: under B2 stands 0.579 nM; under B3, 1.04 nM. On the same count and under the same terms, under B4 stands 3.03 nM. Take B5: the Kd is 6.96 nM.

Turning to B6, the Kd amounted to 0.59 nM.

With B7, the Kd was 1.7 nM.

For the molecule B8, the Kd was found to be 2.31 nM. Take B9: the Kd is 30.2 nM. Same read-out and setting: to B10 belongs 9.14 nM.

The target of the next assay is recombinant bovine Fcg2R (bovine). As to the kind of experiment: SPR Biacore, bFcg2R amine-coupled on CM5, pH 7.4, 15 C.
Sequence of recombinant bovine Fcg2R (bovine) (main, as listed by the source): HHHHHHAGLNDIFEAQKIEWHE
Consider B7, for which the Kd was 59.3 nM.

The target of a further assay is recombinant bovine FcRn (bovine) (UniProt F6R592). As to the kind of experiment: SPR Biacore, bFcRn, pH 6; against bIgG3a wildtype mAb.
Sequence of recombinant bovine FcRn (bovine) (chain, as listed by the source, chain 1 of 2): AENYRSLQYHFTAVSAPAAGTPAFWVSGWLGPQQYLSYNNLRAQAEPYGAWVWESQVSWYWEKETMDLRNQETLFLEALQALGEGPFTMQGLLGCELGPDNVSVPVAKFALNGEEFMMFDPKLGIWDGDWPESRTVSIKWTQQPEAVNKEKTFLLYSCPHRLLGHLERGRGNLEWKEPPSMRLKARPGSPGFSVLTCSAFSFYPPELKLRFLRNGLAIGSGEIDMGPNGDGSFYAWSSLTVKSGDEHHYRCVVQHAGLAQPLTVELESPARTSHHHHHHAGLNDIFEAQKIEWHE
Sequence of recombinant bovine FcRn (bovine) (P01888 21-118, chain 2 of 2): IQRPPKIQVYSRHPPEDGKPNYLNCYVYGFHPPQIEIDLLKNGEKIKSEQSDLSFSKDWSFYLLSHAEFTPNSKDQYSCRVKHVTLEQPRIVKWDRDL
Consider B10, for which the fold higher affinity than bIgG3a wildtype was 5 fold.

A further assay deals with recombinant bovine Fcg2R (bovine). As to the kind of experiment: SPR Biacore, bFcg2R amine-coupled on CM5; against bIgG2a wildtype mAb.
Take B7: the Fcg2R KD reduction from WT was 4 fold.

The record behind these values is patent US20230416410A1.
